Measured values published in patent publication US20220193251A1, “CD30 TARGETING ANTIBODY DRUG CONJUGATES AND USES THEREOF” (Ludwig-Maximilians-Universitaet Muenchen, priority 2020, published 2022).

Legend:
[1] = biological target: cathepsin B (Homo sapiens, UniProt P07858); assay: Digestion of vc payloads with protease cathepsin B, RP-HPLC; assay type: biochemical; conditions: cathepsin B 1:1000 for each vc moiety
Method: Prior to the conjugation with the antibody, payloads 2 and 3 have been analyzed for their susceptibility to cleavage by the protease cathepsin B (FIGS. 5A-5C).
FIGS. 5A-5C show in FIG. 5A an RP-HPLC analysis of the valine-citrulline (vc) containing payload 2 during digestion reaction with the protease cathepsin B (1:1000 for each vc moiety). Prior to analysis the reaction was stopped with E-64. The chromatogram after a reaction time of 150 min was recorded at 220 nm. […] During the reaction of payload 3 with cathepsin B an intermediate is formed (grey, triangle) which contains one MMAE moiety.

[2] = Repeated dose toxicity and toxicokinetic study in cynomolgus monkey; assay type: in vivo
Method: Clinical condition (incl. bodyweight, food consumption & clinical observations), clinical pathology and immunophenotyping (T, B and NK cells) was evaluated throughout the study, with frequent sampling for TK and anti-drug antibody determination. All animals were subject to full necropsy with detailed macroscopic observations.
Bodyweight is depicted in kilogram, lymphocytes in billion per liter, neutrophiles in billion per liter and white blood cells in billion per liter.

[3] = Repeated dose toxicity and toxicokinetics study in rats; assay type: in vivo, Sprague Dawley rats; conditions: for Glucose level: one ADC compared to the other
Method: Experiments were performed in accordance with animal welfare law and approved by local authorities. […] Clinical observations, body weight and food consumption were determined daily throughout the study. Pharmacokinetic samples were obtained prior to each dose, 15 minutes post each dose and at necropsy from each animal. All animals were necropsied, with organs weighed and retained in fixative. Clinical pathology (hematology, clinical chemistry and coagulation end-points) samples were also taken at necropsy.
Clinical observations, body weight and food consumption were determined daily throughout the study. Pharmacokinetic samples were obtained prior to each dose, 15 minutes post each dose and at necropsy from each animal. All animals were necropsied, with organs weighed and retained in fixative. Clinical pathology (hematology, clinical chemistry, and coagulation endpoints) samples were also taken at necropsy.
As reference, rats were dosed with a control (vehicle) (data not shown).

[4] = Storage of ADCs in mouse-plasma for 7 days at 37° C.; assay type: in vitro ADME; conditions: for DARav after plasma incubation n = 2 / Payload lost: mouse-plasma, 7 days at 37° C.
[5] = cynomolgus monkey, cited from earlier work
[6] = cynomolgus monkey, 6, 12 and 15 mg/kg
[7] = cynomolgus monkey, 6, 12 and 15 mg/kg repeated dose
[8] = rat, 10 mg/kg weekly, compared to the Brentuximab Tub-tag ADC

HA-(VC-PAB-MMAE)2 [payload 3]
susceptibility to cleavage by cathepsin B, release of free MMAE [1]: cleaved by cathepsin B

Bren. LC-2: Brentuximab with Tub-tag on light chains (SEQ ID NO: 11/1), 3-formyl-L-tyrosine, oxime-linked Payload 2 (vc-PAB-MMAE), DAR 2
lymphocytes concentration and white blood cells concentration [2, 6]: No significant changes
reduction in neutrophiles in comparison to Brentuximab vedotin (3 mg/kg) [2, 6]: does not cause a higher amount of reduction in neutrophiles
clinical tolerability [2, 7]: clinically well tolerated
mortality, macroscopic and microscopic findings [2, 7]: no mortality and no macroscopic or sever microscopic findings
reductions in red blood cells, hemoglobin and neutrophils ([2]; cynomolgus monkey, at 12 & 15 mg/kg): relatively consistent to those observed with Adcetris at 3 mg/kg
overall safety profile in the rat ([3]; 10 mg/kg weekly): better safety profile compared to Brentuximab vedotin
serum concentrations after repeated doses ([3]; rat, 10 mg/kg i.v. at day 1, 8, 15 and 22): reasonable levels of serum concentrations
Hematocrit ([3]; rat, 10 mg/kg weekly): no marked effect
Hemoglobin levels ([3]; rat, 10 mg/kg weekly): no marked effect
MMAE driven testes changes ([3]; rat, 10 mg/kg weekly): delayed in onset
Red blood cell count ([3]; rat, 10 mg/kg weekly): no marked effect
Reticulocytes count ([3]; rat, 10 mg/kg weekly): no effect
impact on red blood cell populations ([3]; rat, 10 mg/kg weekly): no impact on red blood cell populations
Glucose level ([3]; rat, 10 mg/kg weekly): lower glucose levels
DAR before plasma incubation [4]: 2
DARav after plasma incubation n = 2 [4]: 1.8
Payload lost [4]: 10%

CC[C@H](C)[C@H]([C@H](CC(=O)N1CCC[C@@H]1[C@@H](OC)[C@H](C)C(=O)N[C@@H](C)[C@H](O)c1ccccc1)OC)N(C)C(=O)[C@H](NC(O)[C@@H](C(C)C)N(C)C(=O)OCc1ccc(NC(=O)[C@@H](CCCNC(N)=O)NC(=O)[C@H](NC(=O)CON)C(C)C)cc1)C(C)C (stereo partly shown) [payload 2, HA-VC-PAB-MMAE]
susceptibility to cleavage by cathepsin B, release of free MMAE [1]: cleaved by cathepsin B

Bren. HC-2: Brentuximab with Tub-tag on heavy chains (SEQ ID NO: 2/12), 3-formyl-L-tyrosine, oxime-linked Payload 2 (vc-PAB-MMAE), DAR 2
DAR before plasma incubation [4]: 2
DARav after plasma incubation n = 2 [4]: 1.8
Payload lost [4]: 10%

Brentuximab vedotin: approved CD30 ADC: chimeric IgG1 brentuximab, Cathepsin B cleavable Valin-Citrulline linker, Monomethyl-Auristatin E; maleimide-linked, DARav 4
Hematocrit ([3]; rat, 10 mg/kg weekly): reduces hematocrit (mainly in males)
Hemoglobin levels ([3]; rat, 10 mg/kg weekly): reduces hemoglobin levels (mainly in males)
MMAE driven testes changes ([3]; rat, 10 mg/kg weekly): testes changes were observed
Red blood cell count ([3]; rat, 10 mg/kg weekly): marked impact
Reticulocytes count ([3]; rat, 10 mg/kg weekly): marked impact
APTT [3, 8]: lower APTT values
Eosinophils counts [3, 8]: lower eosinophils counts
Testis weight [3, 8]: lower testis weight
Thymus weight [3, 8]: lower thymus weight
Glucose level ([3]; rat, 10 mg/kg weekly): greater level of glucose
DAR before plasma incubation [4]: 4.02
DARav after plasma incubation n = 2 [4]: 1.53
Payload lost [4]: 62%
tolerability at 6 mg/kg ([5]; 6 mg/kg): poorly tolerated
MTD [5]: 3 mg/kg
